# T1: CXCR1-U2OS (Homo sapiens, UniProt P25024)
# T1 construct: host or cells: U2OS-derived CXCR1 cell line, purchased
# T1 sequence (P25024 1-350): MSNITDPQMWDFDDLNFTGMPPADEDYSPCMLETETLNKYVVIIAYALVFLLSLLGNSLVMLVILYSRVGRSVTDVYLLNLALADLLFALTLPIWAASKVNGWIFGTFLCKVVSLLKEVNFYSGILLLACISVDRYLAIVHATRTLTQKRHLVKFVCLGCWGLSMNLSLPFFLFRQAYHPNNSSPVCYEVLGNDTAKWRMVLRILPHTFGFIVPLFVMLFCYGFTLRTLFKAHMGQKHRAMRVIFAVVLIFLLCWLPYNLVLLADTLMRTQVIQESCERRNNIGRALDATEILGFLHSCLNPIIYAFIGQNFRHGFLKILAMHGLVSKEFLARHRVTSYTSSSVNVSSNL
# Experiments:
# [1] = target: T1, CXCR1-U2OS; experiment: Flow cytometry binding to CXCR1 expressing cells
# Protocol: (§1) Briefly, a cell line expressing functionally validated CXCR1 derived from U2OS cells was obtained from DiscoveRx and cultured per manufacturer's instructions (Cat#93-0226C3, DiscoveRx Corporation, Freemont, Calif.). The parental cell line U20S was obtained from ATCC and cultured under the same conditions as the CXCR1 cells. Cell culture supernatants from Example 2 above were then tested for binding to cells by flow cytometry. The adherent U20S or CXCR1-U20S cells were dissociated with Accutase (Innovative Cell Technologies, Inc., San Diego, Calif.), neutralized with an equal volume of media containing 10% serum, centrifuged at 1000 g, and resuspended in PBS with 2% BSA. Next, cells were dispensed into microtiter plates to achieve between 30,000 to 300,000 cells per well, centrifuged again, and resuspended in cell culture supernatant containing expressed IgG, or a dilution of IgG-containing cell culture supernatant. A fluorescent-conjugated anti-Human Fc antibody was used to detect binding of the expressedBLV1H12-IL8 fusion proteins to cells.
# [2] = system: Parental U2OS; experiment: Flow cytometry binding to parental cells; conditions: cell culture supernatant containing expressed IgG, anti-Human Fc detection
# Protocol: as §1
# [3] = system: Mouse NFS-60 cells; experiment: Proliferation assay on mouse NFS-60 cells (AlamarBlue); format: cell-based; conditions: 72 hours
# Protocol: Mouse NFS-60 cells were obtained from American Type Culture Collection (ATCC), VA, and cultured in RPMI-1640 medium supplemented with 10% fetal bovine serum (FBS), 0.05 mM 2-mercapoethanol and 62 ng/ml human macrophage colony stimulating factor (M-CSF). For proliferation assay, mouse NFS-60 cells were washed three times with RPMI-1640 medium and resuspended in RPMI-1640 medium with 10% FBS and 0.05 mM 2-mercapoethanol at a density of 1.5×10^5 cells/ml. In 96-well plates, 100 μl of cell suspension was added into each well, followed by the addition of varied concentrations of bGCSF, BLV1H12 antibody, and the immunoglobulin constructs described herein, Equal volume of PBS buffer was added into the control wells. The plates were incubated at 37° C. in a 5% CO2 incubator for 72 hours. Cells were then treated with AlamarBlue (Invitrogen) ( 1/10 volume of cell suspension) for 4 hours at 37° C. Fluorescence at 595 nm for each well was read to indicate the cell viability.
# [4] = system: Human mPB CD34+ cells; experiment: Proliferative activity on human granulocyte progenitors (flow cytometry); format: cell-based; conditions: 7 days
# Protocol: Human mPB CD34^+ cells were purchased from AllCells. Cells were resuspended in HSC expansion medium (StemSpan SFEM, StemCell Technologies) supplemented with 1× antibiotics and the following recombinant human cytokines thrombopoietin, IL6, Flt3 ligand, and stem cell factor (100 ng/mL, R & D Systems), then plated in 96-well plates (1000 cells per well), with varied concentrations of BLV1H12-bGCSF fusion antibodies. Cells were cultured for 7 days at 37° C. in a 5% CO2 incubator, then analyzed by flow cytometry to measure cell number and expression of CD45ra and CD41. Cells were stained in staining medium (HBSS supplemented with 2% FBS and 2 mM EDTA) at 4° C. for 1 h with PECy7 anti-CD45ra and eFluor 450 anti-CD41 (eBiosciences), then washed with staining medium and analyzed. Multicolor analysis for cell phenotyping was performed on a LSR II flow cytometer (Becton Dickinson). FIGS. 10A-10E and Tables 9-10 show the human granulocyte progenitor cell proliferative activities of the Ab-GCSF fusion antibodies.
# [5] = Pharmacokinetics of BLV1H12-bGCSF fusion antibodies in mice; format: in vivo; conditions: BALB/c mice, 70 μg injected
# Protocol: For PK study in mice, 70 μg of the immunoglobulin constructs described herein were injected into 3 BALB/c mice per group. Blood samples were drawn from time 0 to 14 days with extended intervals and analyzed by ELISA using anti-human IgG Fc antibody with horseradish peroxidase (HRP) labeled (KPL) and anti-6×His antibody with HRP labeled (Clontech). Data were normalized by taking maximal concentration at the first time point (30 min).
# [6] = system: mice neutrophils; experiment: Neutrophils counts in mice; format: in vivo; conditions: mice blood, 10th day post-injection, neutrophils among white blood cells
# Protocol: On the 10th day after injection of BLV1H12-bGCSF fusion antibodies into mice for PK study, blood samples were drawn from the mice and stained using the Diff Quick Staining Kit (Thermo Fisher Scientific, IL). Neutrophils and white blood cells were counted under microscope and the percentages of neutrophils were analyzed. FIGS. 12A-12B and Table 12 show proliferative activities of BLV1H12-bGCSF fusion antibodies on mice neutrophils that are blood stained and counted at the 10th day post-injection.
molecule,measurement,setting,value
BLV1H12-IL8: human IL-8 (amino acids 26-99) replacing the knob domain of BLV1H12; heavy chain variable region SEQ ID NO: 38 (antibody) VH: QVQLRESGPSLVKPSQTLSLTCTASGFSLSDKAVGWVRQAPGKALEWLGSIDTGGNTGYNPGLKSRLSITKDNSKSQVSLSVSSVTTEDSATYYCTSVHQETKKYQSPRSAKELRCQCIKTYSKPFHPKFIKELRVIESGPHCANTEIIVKLSDGRELCLDPKENWVQRVVEKFLKRAENSGSGSYTYNYEWHVDVWGQGLLVTV light: QAVLNQPSSVSGSLGQRVSITCSGSSSNVGNGYVSWYQLIPGSAPRTLIYGDTSRASGVPDRFSGSRSGNTATLTISSLQAEDEADYFCASAEDSSSNAVFGSGTTLTVLGQPKSPPSVTLFPPSTEELNGNKATLVCLISDFYPGSVTVVWKADGSTITRNVETTRASKQSNSKYAASSYLSLTSSDWKSKGSYSCEVTHEGSTVTKTVKPSECS,ratio of median fluorescence (IgG binding) of CXCR1-U2OS cells versus U2OS parental cells,[1],has specificity for CXCR1
same,Median Arbitrary Fluorescence Units (AFU),"[1]; CXCR1-U2OS cells, cell culture supernatant containing expressed IgG, anti-Human Fc detection",707 AFU
same,Median Arbitrary Fluorescence Units (AFU),[2],76 AFU
"bGCSF: bovine G-CSF (granulocyte colony-stimulating factor) (protein, listed as Bos taurus, bGCSF) TPLGPARSLPQSFLLKCLEQVRKIQADGAELQERLCAAHKLCHPEELMLLRHSLGIPQAPLSSCSSQSLQLTSCLNQLHGGLFLYQGLLQALAGISPELAPTLDTLQLDVTDFATNIWLQMEDLGAAPAVQPTQGAMPTFTSAFQRRAGGVLVASQLHRFLELAYRGLRYLAEP","F.I. (AlamarBlue fluorescence at 595 nm, cell viability)",[3]; 0.09145 ng/mL,1214
same,"F.I. (AlamarBlue fluorescence at 595 nm, cell viability)",[3]; 0.27435 ng/mL,1360.925
same,"F.I. (AlamarBlue fluorescence at 595 nm, cell viability)",[3]; 0.82305 ng/mL,1761
same,"F.I. (AlamarBlue fluorescence at 595 nm, cell viability)",[3]; 2.46914 ng/mL,2101
same,"F.I. (AlamarBlue fluorescence at 595 nm, cell viability)",[3]; 7.40741 ng/mL,2405
same,"F.I. (AlamarBlue fluorescence at 595 nm, cell viability)",[3]; 22.22222 ng/mL,2646
same,"F.I. (AlamarBlue fluorescence at 595 nm, cell viability)",[3]; 66.66667 ng/mL,2812.098
same,"F.I. (AlamarBlue fluorescence at 595 nm, cell viability)",[3]; 200 ng/mL,3087.144
same,Number of CD45RA− CD41−,[4]; 0.55886 ng/mL,7354
same,Number of CD45RA− CD41−,[4]; 1.67657 ng/mL,9776
same,Number of CD45RA− CD41−,[4]; 5.02972 ng/mL,12700
same,Number of CD45RA− CD41−,[4]; 15.08916 ng/mL,13200
same,Number of CD45RA− CD41−,[4]; 45.26749 ng/mL,13700
same,Number of CD45RA− CD41−,[4]; 135.80247 ng/mL,13300
same,Number of CD45RA− CD41−,[4]; 407.40741 ng/mL,13700
same,Number of CD45RA− CD41−,[4]; 1222.22222 ng/mL,14100
same,Number of CD45RA− CD41−,[4]; 3666.66667 ng/mL,13100
same,Number of CD45RA− CD41−,[4]; 11000 ng/mL,13800
same,"Percentage (normalized to maximal concentration at the first time point, 30 min)",[5]; 0.5 hour,100.00%
same,"Percentage (normalized to maximal concentration at the first time point, 30 min)",[5]; 1 hour,79.52%
same,"Percentage (normalized to maximal concentration at the first time point, 30 min)",[5]; 3 hour,56.81%
same,"Percentage (normalized to maximal concentration at the first time point, 30 min)",[5]; 6 hour,14.94%
same,"Percentage (normalized to maximal concentration at the first time point, 30 min)",[5]; 24 hour,4.08%
same,"Percentage (normalized to maximal concentration at the first time point, 30 min)",[5]; 48 hour,0.00%
same,"Percentage (normalized to maximal concentration at the first time point, 30 min)",[5]; 72 hour,0.00%
same,Percentage of Neutrophil,[6],16.48

# Source: patent US20140050720A1, “ULTRALONG COMPLEMENTARITY DETERMINING REGIONS AND USES THEREOF” (THE SCRIPPS RESEARCH INSTITUTE, priority 2012, published 2014)
